Assay results: paper PMC6504924, “Utilizing a Simple Method for Stoichiometric Protein Labeling to Quantify Antibody Blockade” (Scientific Reports, 2019)

T1: unlabeled VEGF165a homodimer purified in the same manner (with CDN N-terminal appendage)
T1 chain: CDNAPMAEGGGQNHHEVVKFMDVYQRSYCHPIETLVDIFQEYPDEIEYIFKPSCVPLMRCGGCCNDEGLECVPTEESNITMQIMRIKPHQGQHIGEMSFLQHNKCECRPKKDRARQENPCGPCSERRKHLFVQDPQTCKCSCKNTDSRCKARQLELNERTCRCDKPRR

B1: unlabeled PDGF-BB homodimer purified in the same manner (with CDN N-terminal appendage) (ligand)
chain: CDNSLGSLTIAEPAMIAECKTRTEVFEISRRLIDRTNANFLVWPPCVEVQRCSGCCNNRNVQCRPTQVQLRPVQVRKIEIVRKKPIFKKATVTLEDHLACKCETVAAARPVT
notes: three-amino acid N-terminal appendage left after HaloTEV cleavage of the modified TEV site EDLYFQC; platelet-derived growth factor subunit B (PDGF-B); Disulfide-linked homodimer; also called PDFG-B; source: HEK293T, transiently expressed as secreted HaloTag fusion, purified (HaloLink beads, HaloTEV release); not shown: HaloTag, N-terminal, cleaved
B2: unlabeled VEGF165a homodimer purified in the same manner (with CDN N-terminal appendage) (ligand)
chain: T1 chain
modifications: disulfide-linked homodimer; unlabeled; mature VEGF165 limits by convention (191-aa AUG-initiated isoform precursor, signal 1-26) / disulfide-linked homodimer; unlabeled; mature VEGF165 limits by …

Assays:
[1] = biological target: the molecule itself; test: SDS-PAGE with and without reducing agent; purified growth factors resolved by SDS-PAGE in the presence and absence of 100 mM dithiothreitol (DTT)
[2] = biological target: T1, unlabeled VEGF165a homodimer purified …; test: as above; details: both partners purified

| Binder | stoichiometry N [1] | stoichiometry N [2] |
| --- | --- | --- |
| B1 | 2 |  |
| B2 |  | 2 |
